Some targets named below: HLA-B*15:01; HLA-B*58:01; HLA-B*27:05; HLA-B*51:01; HLA-A*31:01; HLA-B*35:01; HLA-B*07:02.
Test in all cases: IEDB peptide-MHC binding, purified MHC/direct/fluorescence; filed as Kd, often an IC50 or EC50 that approximates it; ≥ and ≤ were set here for values at or beyond the usual limits of such assays
The target in another assay is HLA-B*39:01. The conditions noted are these: source organism: Yellow fever virus.
The target in the next assay is HLA-B*40:01. The following applies: source organism: Yellow fever virus.
The target in the next assay is HLA-A*01:01. The following applies: source organism: dengue virus type 2.
The target of another assay is HLA-A*03:01. The conditions noted are these: source organism: Yellow fever virus.
The mark [1] stands for this setting: source organism: Yellow fever virus.
The mark [2] stands for this setting: source organism: dengue virus type 4.
[3] abbreviates: source organism: dengue virus type 1.
Where [4] appears, read: source organism: dengue virus type 2.
The mark [5] stands for this setting: source organism: dengue virus type 3.

This passage reports Kd results from the Immune Epitope Database (IEDB).

What is called Kd is the equilibrium constant for the complex coming apart. A lower Kd goes with higher affinity. In the case of AQAVMEMTY, the Kd with HLA-B*15:01 (setting [1]) was determined as 56 nM.

In the assay with HLA-B*15:01 (setting [2]), AQEDDQYVF yielded a Kd of 81 nM. In the case of CRTAFKPVL, in the assay with HLA-B*39:01, the Kd amounted to 2060 nM. The same measure, in the same setting: the result for ERWFVRNPF reads ≥ 20000 nM. The sequence ESWIVDRQW showed a dissociation constant Kd with HLA-B*58:01 (setting [1]) of 123 nM.

With FHERGYVKL, in the assay with HLA-B*39:01, the Kd was 35 nM. Same read-out and setting: the result for FHKRDMRLL reads ≥ 20000 nM. FRKGSSIGK came in with a Kd with HLA-B*27:05 (setting [2]) of 52 nM.

Regarding FTMRLLSPV, the Kd with HLA-B*51:01 (setting [3]) was ≥ 20000 nM. With GEAMDTISV, the Kd in the assay with HLA-B*40:01 is ≤ 1 nM; with HLA-B*39:01, ≥ 20000 nM. In turn, GMGEAAAIF registered a Kd with HLA-B*15:01 (setting [3]) of 29 nM.

GMMGGLWKY: the Kd with HLA-B*15:01 (setting [1]) turned out to be 32 nM.

On to ICSAVPSHW, for which the Kd with HLA-B*58:01 (setting [4]) came out at 394 nM. For ICSAVPVHW, the Kd in the assay with HLA-B*58:01 (setting [5]) is 76 nM.

In the case of IQYVIRAQL, the dissociation constant (Kd) with HLA-B*39:01 was 682 nM. Regarding ISYIMLIFF, the Kd with HLA-B*58:01 (setting [1]) is 1050 nM. Consider ITAAAWYLW, for which the Kd with HLA-B*58:01 (setting [4]) came out at 46 nM.

ITAHLKRLW: in the assay with HLA-B*58:01 (setting [1]), the Kd is 46 nM. In the assay with HLA-B*58:01 (setting [2]), KAYAQMWSL gave a Kd of 10 nM.

As for KIMKVVNRW, in the assay with HLA-B*58:01 (setting [1]), the Kd came to 37 nM. Regarding KLEGKIVQY, the Kd in the assay with HLA-B*15:01 (setting [3]) was found to be 126 nM. KLQLKGMSY came in with a Kd with HLA-B*15:01 (setting [4]) of 111 nM. In the assay with HLA-B*15:01 (setting [5]), KQIANELNY displayed a Kd of 113 nM. On to KQLGQVMLL, for which the Kd with HLA-B*27:05 (setting [2]) stood at 129 nM.

Regarding KRAAAGIMK, the Kd with HLA-B*27:05 (setting [4]) was found to be 75 nM. For the sequence KRVVASLMR, the Kd with HLA-B*27:05 (setting [1]) turned out to be 107 nM. Sequence KSAHGSPTF gave a Kd with HLA-B*58:01 (setting [1]) of 36 nM.

KTNDRKWCF: the Kd with HLA-B*58:01 (setting [1]) came to 58 nM.

On to KTWAYHGSY, for which the Kd with HLA-A*01:01 and with HLA-A*31:01 (setting [4]) was ≥ 20000 nM throughout.

As to KTWGKNLVF, in the assay with HLA-B*58:01 (setting [1]), the Kd was determined as 19 nM. As to LAVMGDAAW, the figures for the Kd with HLA-B*58:01 (setting [1]) and in the assay with HLA-B*35:01 (setting [1]) were 3 nM and ≤ 1 nM, respectively.

As for LTLKGTSYK, the Kd worked out at 104 nM with HLA-A*03:01 and 518 nM with HLA-A*31:01 (setting [1]). As to MPRSIGGPV, the Kd with HLA-B*51:01 (setting [1]) is 858 nM; with HLA-B*07:02 (setting [1]), 5 nM.

MVIFFMSPK: the Kd was 610 nM with HLA-A*03:01 and 1400 nM with HLA-A*31:01 (setting [1]). As to PHAATIRVL, the Kd with HLA-B*39:01 came out at 960 nM.

Turning to RADEINAIL, in the assay with HLA-B*39:01, the Kd was 156 nM. RKHGGMLVR had a Kd with HLA-B*27:05 (setting [3]) of 348 nM.

For RMGERQLQK, the Kd is 340 nM in the assay with HLA-A*03:01 and 187 nM in the assay with HLA-A*31:01 (setting [1]).

Regarding RQLQKIERW, the dissociation constant (Kd) in the assay with HLA-B*58:01 (setting [1]) was determined as 67 nM. Sequence RRDKRSVAL displayed a Kd with HLA-B*27:05 (setting [3]) of 52 nM. In turn, RREKRSVAL had a Kd with HLA-B*27:05 (setting [2]) of 400 nM. As to RTWAYHGSY, the Kd in the assay with HLA-A*31:01 (setting [2]) stood at 37 nM; in the assay with HLA-B*15:01 (setting [2]), 12 nM.

For the sequence RTWHYCGSY, the Kd in the assay with HLA-B*15:01 (setting [1]) came out at 68 nM. On the same count and under the same terms, to SIQDNQVAY belongs 217 nM. With SPSKLASAI, the Kd with HLA-B*07:02 (setting [4]) is 12 nM.

In turn, SQEAEFTGY had a Kd in the assay with HLA-B*15:01 (setting [1]) of 94 nM. As to SQHNYRPGY, the Kd in the assay with HLA-B*15:01 (setting [3]) is 22 nM. Regarding SRLLMRRMR, in the assay with HLA-B*27:05 (setting [1]), the Kd was determined as 295 nM. The same measure, in the same setting: to SRLTYQWHK belongs 16 nM. Consider SSARYDVAL, for which the Kd with HLA-B*39:01 was 377 nM. Take STMPLVMAW: the Kd in the assay with HLA-B*58:01 (setting [2]) turned out to be 3 nM. Consider SVAMCRTPF, for which the Kd with HLA-B*07:02 (setting [1]) came to 290 nM.

TKDTNDNNL had a Kd in the assay with HLA-B*39:01 of 136 nM. TLYAVATTF showed a Kd with HLA-B*15:01 (setting [4]) of 133 nM. In the case of VLIEVNPPF, the Kd was determined as 39 nM with HLA-B*35:01 (setting [1]) and 69 nM in the assay with HLA-B*15:01 (setting [1]). Regarding VRGGMVAPL, in the assay with HLA-B*39:01, the Kd worked out at 5370 nM. Turning to VSGKLIHEW, the equilibrium dissociation constant (Kd) with HLA-B*58:01 (setting [5]) came out at 32 nM. On to WRTIMAVLF, for which, in the assay with HLA-B*27:05 (setting [2]), the Kd worked out at 232 nM. With YLAGAGLAF, the Kd amounted to 4 nM with HLA-B*35:01 (setting [3]) and 11 nM with HLA-B*15:01 (setting [3]). YRLRGEARK: the Kd with HLA-B*27:05 (setting [3]) was 86 nM. For YRNALSMMP, in the assay with HLA-B*27:05 (setting [1]), the Kd was ≥ 20000 nM.
